T1: wild-type PXR LBD without the fused coactivator peptide (human, UniProt O75469 130-434)
T1 sequence (looked up): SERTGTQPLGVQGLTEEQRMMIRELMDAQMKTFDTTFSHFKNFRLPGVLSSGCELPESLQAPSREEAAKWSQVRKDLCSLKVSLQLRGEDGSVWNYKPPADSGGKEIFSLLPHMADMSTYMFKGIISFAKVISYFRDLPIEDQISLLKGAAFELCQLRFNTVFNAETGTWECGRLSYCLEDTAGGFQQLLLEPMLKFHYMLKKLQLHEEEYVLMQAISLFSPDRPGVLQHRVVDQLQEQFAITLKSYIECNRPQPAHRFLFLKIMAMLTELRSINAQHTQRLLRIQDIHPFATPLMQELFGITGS

T2: wild-type RXRα LBD without the fused coactivator peptide (human, UniProt P19793 227-462)
T2 sequence (looked up): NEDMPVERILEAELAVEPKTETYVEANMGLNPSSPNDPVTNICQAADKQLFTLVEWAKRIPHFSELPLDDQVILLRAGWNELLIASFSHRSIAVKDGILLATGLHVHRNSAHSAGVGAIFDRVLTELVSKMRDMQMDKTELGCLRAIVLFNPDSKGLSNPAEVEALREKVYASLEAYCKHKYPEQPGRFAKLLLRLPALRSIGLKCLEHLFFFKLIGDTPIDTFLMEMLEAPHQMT

T3: RXRα LBD (residues 227-462), the LBD part of the crystallised fusion chain (human, UniProt P19793 227-462)
T3 sequence (looked up): T2 sequence (looked up)

T4: PXR LBD (residues 130-434), the LBD part of the crystallised fusion chain (human, UniProt O75469 130-434)
T4 sequence (looked up): T1 sequence (looked up)

B1: PXR/RXRα LBD heterotetramer complex of unfused PXR LBD with SRC-1-fused RXRα LBD (complex, human)
chain 1: T1 sequence (looked up)
chain 2: NEDMPVERILEAELAVEPKTETYVEANMGLNPSSPNDPVTNICQAADKQLFTLVEWAKRIPHFSELPLDDQVILLRAGWNELLIASFSHRSIAVKDGILLATGLHVHRNSAHSAGVGAIFDRVLTELVSKMRDMQMDKTELGCLRAIVLFNPDSKGLSNPAEVEALREKVYASLEAYCKHKYPEQPGRFAKLLLRLPALRSIGLKCLEHLFFFKLIGDTPIDTFLMEMLEAPHQMTGGSGGSSHSSLTERHKILHRLLQEGSPS
B2: PXR/RXRα LBD heterotetramer complex of SRC-1 fused PXR LBD with unfused RXRα LBD (complex, human)
chain 1: T2 sequence (looked up)
chain 2: SERTGTQPLGVQGLTEEQRMMIRELMDAQMKTFDTTFSHFKNFRLPGVLSSGCELPESLQAPSREEAAKWSQVRKDLCSLKVSLQLRGEDGSVWNYKPPADSGGKEIFSLLPHMADMSTYMFKGIISFAKVISYFRDLPIEDQISLLKGAAFELCQLRFNTVFNAETGTWECGRLSYCLEDTAGGFQQLLLEPMLKFHYMLKKLQLHEEEYVLMQAISLFSPDRPGVLQHRVVDQLQEQFAITLKSYIECNRPQPAHRFLFLKIMAMLTELRSINAQHTQRLLRIQDIHPFATPLMQELFGITGSGGSGGSSHSSLTERHKILHRLLQEGSPS
B3: fluorescein labeled SRC-1 peptide (5-FAM-[residues removed]), residues 676-700 (peptide)
peptide: 5FAM-CPSSHSSLTERHKILHRLLQEGSPS
B4: human SRC-1 coactivator fragment (residues 678-700), as it stands fused to the C-termini of the crystallised LBDs (peptide)
peptide: SSHSSLTERHKILHRLLQEGSPS

Experiment [1] deals with B3. The experiment can be described thus: fluorescence polarisation. On the technique in general: Fluorescence polarisation rises when a labelled molecule tumbles more slowly, as on binding a larger partner.
Experiment [2] addresses T1, wild-type PXR LBD without the fused …. The experiment can be described thus: fluorescence polarisation.
In experiment [3] the target is T2, wild-type RXRα LBD without the fused …. The experiment can be described thus: fluorescence polarisation.
Experiment [4] deals with T3, RXRα LBD (residues 227-462), the LBD …. The experiment can be described thus: crystal structure.
The target in experiment [5] is T4, PXR LBD (residues 130-434), the LBD …. The experiment in a line: crystal structure.

Ends that are not written are not given here. * marks the point of attachment. 5FAM = O=C1OC2(c3ccc(O)cc3Oc3cc(O)ccc32)c2ccc(C(=O)*)cc21

A word on the Kd: it is the constant that tells how readily two partners part at equilibrium. Read a low Kd as tighter binding. In turn, B1 registered a Kd in experiment [1] of 588 ± 29.7 nM.
In the case of B2, the Kd in experiment [1] turned out to be 778 ± 88.8 nM.
On to B3, for which the Kd in experiment [2] was found to be 1180 ± 92.2 nM; in experiment [3], 1560 ± 198 nM.
Turning to B4, the binding result in experiment [4] and in experiment [5] was “binds” each time.

The values are drawn from publication PMC3699901 (Journal of molecular biology, 2013).
